According to patent publication US20200271651:

Experiments:
[1] = biological target: T1, fluorescent labeled elastin protein (5-Fam-QXL520 labeled-elastin), P15502
T1 chain: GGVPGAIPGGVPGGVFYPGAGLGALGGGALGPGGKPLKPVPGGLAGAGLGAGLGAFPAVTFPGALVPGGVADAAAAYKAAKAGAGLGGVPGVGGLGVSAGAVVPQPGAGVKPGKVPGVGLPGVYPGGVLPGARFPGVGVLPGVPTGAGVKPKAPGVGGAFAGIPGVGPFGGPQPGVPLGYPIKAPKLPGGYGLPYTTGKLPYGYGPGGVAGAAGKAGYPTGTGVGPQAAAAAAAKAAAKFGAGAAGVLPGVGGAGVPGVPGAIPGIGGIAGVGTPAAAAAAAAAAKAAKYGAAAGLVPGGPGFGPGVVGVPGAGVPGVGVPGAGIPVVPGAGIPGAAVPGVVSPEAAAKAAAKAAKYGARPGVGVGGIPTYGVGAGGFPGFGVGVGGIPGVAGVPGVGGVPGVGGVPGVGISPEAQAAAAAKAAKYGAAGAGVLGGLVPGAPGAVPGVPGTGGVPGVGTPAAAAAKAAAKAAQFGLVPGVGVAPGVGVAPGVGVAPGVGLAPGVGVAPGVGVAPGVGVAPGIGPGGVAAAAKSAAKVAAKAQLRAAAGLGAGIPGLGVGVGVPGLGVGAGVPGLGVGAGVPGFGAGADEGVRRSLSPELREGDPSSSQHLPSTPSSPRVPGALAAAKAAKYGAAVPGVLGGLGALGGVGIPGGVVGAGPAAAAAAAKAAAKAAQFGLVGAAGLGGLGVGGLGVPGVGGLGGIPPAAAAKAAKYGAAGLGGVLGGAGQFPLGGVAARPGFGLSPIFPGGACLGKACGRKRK

[2] = biological target: T2, FluHSA2 fluorogenic peptide
T2 chain: TKCATESAVNRRPCFSALK

Protein | degradation of 5-Fam-QXL520 labeled elastin (fluorescence), native Asp f2 on 5D7A1-bound beads [1] | cleavage of FluHSA2 (10 uM, 16 hours at 22 C; fluorescence), native Asp f2 on anti-Asp f2-immobilized beads [2] | cleavage of FluHSA2 (fluorescence, Ex 485 nm/Em 535 nm), Asp f2 captured on 5D7A1-bound beads [2] | degradation of FITC conjugated collagen (15 ug/mL; fluorescence), native Asp f2 on 5D7A1-bound beads (FITC conjugated collagen)
native Asp f2 (glycosylated form) of Aspergillus fumigatus (protein) ATPHEPVFFSWDAGAVTSFPIHSSCNATQRRQIEAGLNEAVELARHAKAHILRWGNESEIYRKYFGNRPTMEAVGAYDVIVNGDKANVLFRCDNPDGNCALEGWGGHWRGANATSETVICDRSYTTRRWLVSMCSQGYTVAGSETNTFWASDLMHRLYHVPAVGQGWVDHFADGYDEVIALAKSNGTESTHDSEALQYFALEAYAFDIAAPGVGCAGESHGPDQGHDTGSASAPASTSTSSSSSGSGSGATTTPTDSPSATIDVPSNCHTHEGGQLHCT | native Asp f2 is also capable of degrading the human proteins collagen and elastin | FluHSA2 was found to exhibit high specificity for cleavage by Asp f2 compared with Asp f3 | both native and recombinant Asp f2 cleave the FluHSA2 substrate | native Asp f2 is also capable of degrading the human proteins collagen and elastin
active recombinant Asp f2 (residues 32-310) (protein) ATPHEPVFFSWDAGAVTSFPIHSSCNATQRRQIEAGLNEAVELARHAKAHILRWGNESEIYRKYFGNRPTMEAVGAYDVIVNGDKANVLFRCDNPDGNCALEGWGGHWRGANATSETVICDRSYTTRRWLVSMCSQGYTVAGSETNTFWASDLMHRLYHVPAVGQGWVDHFADGYDEVIALAKSNGTESTHDSEALQYFALEAYAFDIAAPGVGCAGESHGPDQGHDTGSASAPASTSTSSSSSGSGSGATTTPTDSPSATIDVPSNCHTHEGGQLHCT | – | – | both native and recombinant Asp f2 cleave the FluHSA2 substrate | –
